Laboratory results as given in patent publication US20200407442A1 (WUXI BIOLOGICS IRELAND, published 2020).
Positions count from the first letter of the chain named.

T1: human LAG-3-ECD.D12.mFc mutant G130A (human, UniProt P18627 37-252)
T1 construct: Alanine scanning mutant; construct limits as for m26
T1 chain: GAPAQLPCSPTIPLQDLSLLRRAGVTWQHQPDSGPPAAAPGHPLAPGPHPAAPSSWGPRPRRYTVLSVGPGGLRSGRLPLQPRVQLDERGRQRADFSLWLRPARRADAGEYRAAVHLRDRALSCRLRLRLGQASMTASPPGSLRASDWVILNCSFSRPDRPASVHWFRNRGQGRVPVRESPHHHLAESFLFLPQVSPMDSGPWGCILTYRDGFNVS

T2: human LAG-3-ECD.D12.mFc mutant L134A (human, UniProt P18627 37-252)
T2 construct: Alanine scanning mutant; construct limits as for m26
T2 chain: T1 chain with A94G, L98A

T3: human LAG-3-ECD.D12.mFc mutant W135A (human, UniProt P18627 37-252)
T3 construct: Alanine scanning mutant; construct limits as for m26
T3 chain: T1 chain with A94G, W99A

T4: full-length mouse LAG-3 on cells (mouse, UniProt Q61790 24-521)
T4 construct: also called mPro1.FL; murine LAG-3
T4 sequence: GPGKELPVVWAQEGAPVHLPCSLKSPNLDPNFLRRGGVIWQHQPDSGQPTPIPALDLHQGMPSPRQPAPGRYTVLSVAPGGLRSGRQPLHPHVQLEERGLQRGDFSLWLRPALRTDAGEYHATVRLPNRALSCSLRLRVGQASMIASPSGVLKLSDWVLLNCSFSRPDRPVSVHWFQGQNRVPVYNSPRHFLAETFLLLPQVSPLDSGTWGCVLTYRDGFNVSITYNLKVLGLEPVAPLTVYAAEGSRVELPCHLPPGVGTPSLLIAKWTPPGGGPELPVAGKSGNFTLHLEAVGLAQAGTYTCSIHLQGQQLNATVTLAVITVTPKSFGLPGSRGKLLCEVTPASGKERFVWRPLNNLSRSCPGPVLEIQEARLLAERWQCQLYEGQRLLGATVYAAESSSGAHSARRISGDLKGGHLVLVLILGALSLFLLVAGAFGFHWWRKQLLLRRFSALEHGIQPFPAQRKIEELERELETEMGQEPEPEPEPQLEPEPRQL

T5: full-length human LAG-3 on cells (human, UniProt P18627 23-525)
T5 construct: Expressed on Flp-In-293, CHO or 293F transfectants; also called hPro1.FL; cell surface human LAG-3
T5 sequence: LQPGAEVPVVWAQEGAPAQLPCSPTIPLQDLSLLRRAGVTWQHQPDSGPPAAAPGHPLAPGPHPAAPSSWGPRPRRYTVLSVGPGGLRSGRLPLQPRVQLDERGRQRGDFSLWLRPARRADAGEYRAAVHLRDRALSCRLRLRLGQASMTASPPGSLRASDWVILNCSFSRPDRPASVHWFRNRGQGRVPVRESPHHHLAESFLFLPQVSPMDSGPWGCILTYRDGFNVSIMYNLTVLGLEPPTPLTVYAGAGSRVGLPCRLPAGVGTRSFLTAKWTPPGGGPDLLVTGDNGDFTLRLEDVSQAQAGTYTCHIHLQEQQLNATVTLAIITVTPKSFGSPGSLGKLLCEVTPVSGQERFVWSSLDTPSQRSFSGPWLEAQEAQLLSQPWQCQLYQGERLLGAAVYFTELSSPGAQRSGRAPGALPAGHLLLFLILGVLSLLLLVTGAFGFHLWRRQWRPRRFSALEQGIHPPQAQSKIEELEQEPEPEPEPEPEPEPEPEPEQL

B1: 3.40.19-uAb-IgG4L (antibody, V domains shown)
VH: QLQLQESGPGLVKPSETLSLTCTVSGDSISSTSYYWGWIRQPPGKGLEWIGSFYYSGSTYYNPSLKSRVTISVDTSKNQFSLKLNSVTAADTAVYYCARMQLWSYDVDVWGQGTTVTVSS
VL: QSALTQPASVSGSPGQSITISCTGTSSDVGGYDYVAWYQQHPGKVPKLMIYDVSERPSGVSNRFSGSKSGNTASLTISGLQAEDEADYYCSSYTSTTTLVVFGGGTKLSVL
notes: Fully human antibody from OMT rats; IgG4 lambda by its name; also called 3.40.19-uAb-hIgG4L
B2: 1.53.3-uAb-IgG4k (antibody, V domains shown)
VH: QVQLQQWGAGLLKPSETLSLTCGVYGGSFSGYYWSWIRQPPGMGLEWIGEINHRGNTNYNPSLKSRVTISEDTSKNQFSLRLSSVTAADTAVYFCTRGEDYSDYDYYGDFWGQGTLVTVSS
VL: EIVLTQSPATLSLSQGERATLSCRASQSISSYLAWYQQKPGQAPRLLIYAASNRATGIPARFSGSGSGTDFTLTISSLEPEDFAIYYCQQRSNWPLTFGGGTKVEIK
notes: Fully human antibody from OMT rats; IgG4 kappa by its name

Legend:
[1] = molecular target: T1, human LAG-3-ECD.D12.mFc mutant G130A; assay: ELISA, antibody coated, LAG-3 D12.mFc mutant in supernatant, normalised to control mutants
Outline: (§1)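 Antibody 1.53.3-uAb-IgG4k or 3.40.19-uAb-hIgG4L coated at 2 μg/mL, then exposed to supernatant containing quantified LAG-3 D12.mFc mutants. Detection with HRP anti-mFc (1:5000). Absorbance normalized to mean of control mutants; binding fold change <0.75 set as epitope cutoff.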

[2] = molecular target: T2, human LAG-3-ECD.D12.mFc mutant L134A; assay: as above
Outline: as §1

[3] = molecular target: T3, human LAG-3-ECD.D12.mFc mutant W135A; assay: as above
Outline: as §1

[4] = molecular target: T4, full-length mouse LAG-3 on cells; assay: FACS on murine LAG-3-expressing Flp-In-CHO cells, MFI
Protocol: Cross-reactivity to cynomolgus and murine LAG-3 was measured by FACS. Murine LAG-3-expressing Flp-In-CHO cells or cynomolgus LAG-3-expressing 293F cells were transferred into 96-well U-bottom plates at a density of 1×10⁵ cells/well. Testing antibodies were serially diluted in wash buffer (1×PBS/1%BSA) and incubated with cells at 4° C. for 1 h. After washing with 1×PBS/1%BSA, corresponding secondary antibody was applied and incubated with cells at 4 ° C. in the dark for 1 h. The cells were then washed and resuspended in 1×PBS/1%BSA and then analyzed by flow cytometry.

[5] = molecular target: T5, full-length human LAG-3 on cells; assay: FACS competition on Flp-In-293 cells expressing human LAG-3: biotinylated BMK1 at 1 ug/mL, serially diluted antibody, Streptavidin-PE
Protocol: (§2) The binding epitope of LAG-3 antibodies was binned against benchmark antibodies BMK1, BMK7 and BMK5 by FACS assay. Flp-In-293 cells expressing human LAG-3 at the cell surface were incubated with biotinylated benchmark antibodies at concentration of 1 μg/mL for 1 hour, followed by the adding of serially diluted LAG-3 antibodies. Streptavidin-PE antibody (Jackson Immunoresearch Lab) was used to detect the binding of benchmark antibodies to cells. The MFI was evaluated by flow cytometry and analyzed by FlowJo.

[6] = molecular target: T5, full-length human LAG-3 on cells; assay: FACS competition on Flp-In-293 cells expressing human LAG-3: biotinylated BMK7 at 1 ug/mL, serially diluted antibody, Streptavidin-PE
Protocol: as §2

| Binder | Fold Change [1] | Fold Change [2] | Fold Change [3] | binding result [4] | IC50 (read off the curve) [5] | IC50 (read off the curve) [6] |
| --- | --- | --- | --- | --- | --- | --- |
| B1 | 0.102 | 0.04 | 0.049 | – | – | – |
| B2 | – | – | – | no binding (tested: 6.7 nM) | ~5 nM | ~3 nM |
